This passage reports percent of ACE2-expressing cells positive for S1-Fc results from publication PMC8601601.

Assay [1] deals with human ACE2 with a C-terminal FLAG tag, on transduced HeLa cells (human) (UniProt Q9BYF1). Briefly: flow cytometry on cells. On the technique in general: Flow cytometry measures light scatter and fluorescence of single cells or particles in a stream.
Assay [2] concerns the target mink ACE2 with a C-terminal FLAG tag, on transduced HeLa cells (mink (Neovison vison)). Briefly: flow cytometry on cells.

For the substance “WT S1 domain of SARS-CoV-2 spike C-terminally fused with a His tag (domain or fragment)”, the values for the percent of ACE2-expressing cells positive for S1-Fc in assay [1] and in assay [2] were 86.5% and 1.2%, respectively.
